Assay results published in patent publication US20220411516A1 (Amgen, published 2022).

Molecular target: T1, EGFRvIII (Epidermal Growth Factor Receptor Variant III) (human, UniProt P00533 298-1210)
T1 construct: also called Human EFGRvIII; de2-7EGFR
Assay: IHC staining, titration of the primary antibody (5.5, 2.75, 1.375 µg/ml)

binding result: binds
B1: EGFRvIII antibody 1 (antibody, mouse IgG1, kappa, V domains shown)
VH: QVQLVESGGGVVQPGRSLRLSCAASGFTFSSYGMHWVRQAPGKGLEWVAVIWYDGSNKYYVDSVKGRFTISRDNSKNTLYLQMNSLRAEDTAVYYCARDGWQQLAPFDYWGQGTLVTVSA
VL: not shown
notes: also called first antibody; primary antibody
